Among the data in paper PMC3295573 (2012) are Kd values, retold here.

In this experiment the target is T1, LidA(FL), untagged (Legionella pneumophila strain Corby).
T1 chain: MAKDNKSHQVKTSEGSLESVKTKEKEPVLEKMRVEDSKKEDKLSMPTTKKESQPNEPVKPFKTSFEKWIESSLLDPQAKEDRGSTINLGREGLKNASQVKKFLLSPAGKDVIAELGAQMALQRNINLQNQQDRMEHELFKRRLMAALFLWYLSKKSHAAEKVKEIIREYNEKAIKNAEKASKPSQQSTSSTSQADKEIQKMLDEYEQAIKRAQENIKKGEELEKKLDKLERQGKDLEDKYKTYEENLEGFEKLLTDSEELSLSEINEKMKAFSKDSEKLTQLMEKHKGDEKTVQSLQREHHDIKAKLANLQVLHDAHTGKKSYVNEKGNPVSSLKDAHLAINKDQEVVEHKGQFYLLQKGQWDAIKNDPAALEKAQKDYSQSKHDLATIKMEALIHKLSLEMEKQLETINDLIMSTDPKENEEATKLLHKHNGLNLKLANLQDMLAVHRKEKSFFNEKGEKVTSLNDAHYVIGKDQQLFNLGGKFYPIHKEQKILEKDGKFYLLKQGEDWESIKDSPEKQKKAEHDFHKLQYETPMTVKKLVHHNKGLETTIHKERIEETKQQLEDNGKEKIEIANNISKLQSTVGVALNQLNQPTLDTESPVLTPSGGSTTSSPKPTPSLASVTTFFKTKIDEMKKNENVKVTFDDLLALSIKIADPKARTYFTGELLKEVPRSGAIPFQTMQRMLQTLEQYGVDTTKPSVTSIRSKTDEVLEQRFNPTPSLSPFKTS
In words: ITC. Background: Isothermal titration calorimetry measures the heat released or taken up as one component is titrated into another.

B1: Rab22 (FL) (natural protein)
chain: MALRELKVCLLGDTGVGKSSIVWRFVEDSFDPNINPTIGASFMTKTVQYQNELHKFLIWDTAGQERFRALAPMYYRGSAAAIIVYDITKEETFSTLKNWVKELRQHGPPNIVVAIAGNKCDLIDVREVMERDAKDYADSIHAIFVETSAKNAININELFIEISRRIPSTDANLPSGGKGFKLRRQPSEPKRSCC
For B1, binding was characterised by a dissociation constant (Kd) of 200 nM.
